From IntAct's records for PubMed 19478065

B1: Chaperone protein IpgC (Shigella flexneri), P0A2U4 (parent)
chain: MSLNITENESISTAVIDAINSGATLKDINAIPDDMMDDIYSYAYDFYNKGRIEEAEVFFRFLCIYDFYNVDYIMGLAAIYQIKEQFQQAADLYAVAFALGKNDYTPVFHTGQCQLRLKAPLKAKECFELVIQHSNDEKLKIKAQSYLDAIQDIKE
partner: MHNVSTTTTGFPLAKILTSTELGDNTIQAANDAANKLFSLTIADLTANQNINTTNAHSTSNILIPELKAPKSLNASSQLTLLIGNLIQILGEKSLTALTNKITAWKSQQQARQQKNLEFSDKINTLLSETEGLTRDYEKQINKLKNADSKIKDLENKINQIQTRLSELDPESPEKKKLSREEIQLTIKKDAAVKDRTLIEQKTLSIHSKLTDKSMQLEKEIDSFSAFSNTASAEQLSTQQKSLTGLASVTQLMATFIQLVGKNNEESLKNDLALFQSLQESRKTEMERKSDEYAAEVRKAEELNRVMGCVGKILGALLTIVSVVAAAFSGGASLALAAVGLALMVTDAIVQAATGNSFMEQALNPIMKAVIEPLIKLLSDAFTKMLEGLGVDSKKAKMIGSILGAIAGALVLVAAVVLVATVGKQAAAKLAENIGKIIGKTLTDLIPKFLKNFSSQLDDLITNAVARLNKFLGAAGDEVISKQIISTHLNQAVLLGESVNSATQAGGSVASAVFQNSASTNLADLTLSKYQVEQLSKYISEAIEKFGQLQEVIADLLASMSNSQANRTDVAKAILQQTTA
B2: Type 3 secretion system translocon protein SctE (Shigella flexneri), P18011 (parent)
chain: B1 partner

Variants of: B1
Details: with scte_shifl sctE

| Variant | effect of a mutation on the interaction |
| --- | --- |
| S41M;Y44G;G75Q;A78M | disrupting interaction strength |

Variants of: B2
Details: with ipgc_shifl ipgC

| Variant | effect of a mutation on the interaction |
| --- | --- |
| MHNVSTTTTGFPLAKILTSTELGDNTIQAANDAANKLFSLTIADLTANQNINTTNAHSTSNILIPELAAPKSLNASSQLTLLIGNLIQILGEKSLTALTNKITAWKSQQQARQQKNLEFSDKINTLLSETEGLTRDYEKQINKLKNADSKIKDLENKINQIQTRLSELDPESPEKKKLSREEIQLTIKKDAAVKDRTLIEQKTLSIHSKLTDKSMQLEKEIDSFSAFSNTASAEQLSTQQKSLTGLASVTQLMATFIQLVGKNNEESLKNDLALFQSLQESRKTEMERKSDEYAAEVRKAEELNRVMGCVGKILGALLTIVSVVAAAFSGGASLALAAVGLALMVTDAIVQAATGNSFMEQALNPIMKAVIEPLIKLLSDAFTKMLEGLGVDSKKAKMIGSILGAIAGALVLVAAVVLVATVGKQAAAKLAENIGKIIGKTLTDLIPKFLKNFSSQLDDLITNAVARLNKFLGAAGDEVISKQIISTHLNQAVLLGESVNSATQAGGSVASAVFQNSASTNLADLTLSKYQVEQLSKYISEAIEKFGQLQEVIADLLASMSNSQANRTDVAKAILQQTTA [K68A] | decreasing interaction strength |
| MHNVSTTTTGFPLAKILTSTELGDNTIQAANDAANKLFSLTIADLTANQNINTTNAHSTSNILIRELKAPKSLNASSQLTLLIGNLIQILGEKSLTALTNKITAWKSQQQARQQKNLEFSDKINTLLSETEGLTRDYEKQINKLKNADSKIKDLENKINQIQTRLSELDPESPEKKKLSREEIQLTIKKDAAVKDRTLIEQKTLSIHSKLTDKSMQLEKEIDSFSAFSNTASAEQLSTQQKSLTGLASVTQLMATFIQLVGKNNEESLKNDLALFQSLQESRKTEMERKSDEYAAEVRKAEELNRVMGCVGKILGALLTIVSVVAAAFSGGASLALAAVGLALMVTDAIVQAATGNSFMEQALNPIMKAVIEPLIKLLSDAFTKMLEGLGVDSKKAKMIGSILGAIAGALVLVAAVVLVATVGKQAAAKLAENIGKIIGKTLTDLIPKFLKNFSSQLDDLITNAVARLNKFLGAAGDEVISKQIISTHLNQAVLLGESVNSATQAGGSVASAVFQNSASTNLADLTLSKYQVEQLSKYISEAIEKFGQLQEVIADLLASMSNSQANRTDVAKAILQQTTA [P65R] | disrupting interaction strength |
| MHNVSTTTTGFPLAKILTSTELGDNTIQAANDAANKLFSLTIADLTANQNINTTNAHSTSNILIPELKADKSLNASSQLTLLIGNLIQILGEKSLTALTNKITAWKSQQQARQQKNLEFSDKINTLLSETEGLTRDYEKQINKLKNADSKIKDLENKINQIQTRLSELDPESPEKKKLSREEIQLTIKKDAAVKDRTLIEQKTLSIHSKLTDKSMQLEKEIDSFSAFSNTASAEQLSTQQKSLTGLASVTQLMATFIQLVGKNNEESLKNDLALFQSLQESRKTEMERKSDEYAAEVRKAEELNRVMGCVGKILGALLTIVSVVAAAFSGGASLALAAVGLALMVTDAIVQAATGNSFMEQALNPIMKAVIEPLIKLLSDAFTKMLEGLGVDSKKAKMIGSILGAIAGALVLVAAVVLVATVGKQAAAKLAENIGKIIGKTLTDLIPKFLKNFSSQLDDLITNAVARLNKFLGAAGDEVISKQIISTHLNQAVLLGESVNSATQAGGSVASAVFQNSASTNLADLTLSKYQVEQLSKYISEAIEKFGQLQEVIADLLASMSNSQANRTDVAKAILQQTTA [P70D] | disrupting interaction strength |
| MHNVSTTTTGFPLAKILTSTELGDNTIQAANDAANKLFSLTIADLTANQNINTTNAHSTSNILIPENKAPKSLNASSQLTLLIGNLIQILGEKSLTALTNKITAWKSQQQARQQKNLEFSDKINTLLSETEGLTRDYEKQINKLKNADSKIKDLENKINQIQTRLSELDPESPEKKKLSREEIQLTIKKDAAVKDRTLIEQKTLSIHSKLTDKSMQLEKEIDSFSAFSNTASAEQLSTQQKSLTGLASVTQLMATFIQLVGKNNEESLKNDLALFQSLQESRKTEMERKSDEYAAEVRKAEELNRVMGCVGKILGALLTIVSVVAAAFSGGASLALAAVGLALMVTDAIVQAATGNSFMEQALNPIMKAVIEPLIKLLSDAFTKMLEGLGVDSKKAKMIGSILGAIAGALVLVAAVVLVATVGKQAAAKLAENIGKIIGKTLTDLIPKFLKNFSSQLDDLITNAVARLNKFLGAAGDEVISKQIISTHLNQAVLLGESVNSATQAGGSVASAVFQNSASTNLADLTLSKYQVEQLSKYISEAIEKFGQLQEVIADLLASMSNSQANRTDVAKAILQQTTA [L67N] | disrupting interaction strength |
